Assay results published in IntAct's records for PubMed 23236153.

B1: Pre-mRNA-splicing factor CWC22 homolog (Homo sapiens), Q9HCG8 (parent)
chain: MKSSVAQIKPSSGHDRRENLNSYQRNSSPEDRYEEQERSPRDRDYFDYSRSDYEHSRRGRSYDSSMESRNRDREKRRERERDTDRKRSRKSPSPGRRNPETSVTQSSSAQDEPATKKKKDELDPLLTRTGGAYIPPAKLRMMQEQITDKNSLAYQRMSWEALKKSINGLINKVNISNISIIIQELLQENIVRGRGLLSRSVLQAQSASPIFTHVYAALVAIINSKFPQIGELILKRLILNFRKGYRRNDKQLCLTASKFVAHLINQNVAHEVLCLEMLTLLLERPTDDSVEVAIGFLKECGLKLTQVSPRGINAIFERLRNILHESEIDKRVQYMIEVMFAVRKDGFKDHPIILEGLDLVEEDDQFTHMLPLEDDYNPEDVLNVFKMDPNFMENEEKYKAIKKEILDEGDTDSNTDQDAGSSEEDEEEEEEEGEEDEEGQKVTIHDKTEINLVSFRRTIYLAIQSSLDFEECAHKLLKMEFPESQTKELCNMILDCCAQQRTYEKFFGLLAGRFCMLKKEYMESFEGIFKEQYDTIHRLETNKLRNVAKMFAHLLYTDSLPWSVLECIKLSEETTTSSSRIFVKIFFQELCEYMGLPKLNARLKDETLQPFFEGLLPRDNPRNTRFAINFFTSIGLGGLTDELREHLKNTPKVIVAQKPDVEQNKSSPSSSSSASSSSESDSSDSDSDSSDSSSESSSEESDSSSISSHSSASANDVRKKGHGKTRSKEVDKLIRNQQTNDRKQKERRQEHGHQETRTERERRSEKHRDQNSSGSNWRDPITKYTSDKDVPSERNNYSRVANDRDQEMHIDLENKHGDPKKKRGERRNSFSENEKHTHRIKDSENFRRKDRSKSKEMNRKHSGSRSDEDRYQNGAERRWEKSSRYSEQSRESKKNQDRRREKSPAKQK

Variants of: B1
Conditions: with if4a3_human EIF4A3, P38919
Sequence of if4a3_human EIF4A3, P38919 (P38919 whole entry): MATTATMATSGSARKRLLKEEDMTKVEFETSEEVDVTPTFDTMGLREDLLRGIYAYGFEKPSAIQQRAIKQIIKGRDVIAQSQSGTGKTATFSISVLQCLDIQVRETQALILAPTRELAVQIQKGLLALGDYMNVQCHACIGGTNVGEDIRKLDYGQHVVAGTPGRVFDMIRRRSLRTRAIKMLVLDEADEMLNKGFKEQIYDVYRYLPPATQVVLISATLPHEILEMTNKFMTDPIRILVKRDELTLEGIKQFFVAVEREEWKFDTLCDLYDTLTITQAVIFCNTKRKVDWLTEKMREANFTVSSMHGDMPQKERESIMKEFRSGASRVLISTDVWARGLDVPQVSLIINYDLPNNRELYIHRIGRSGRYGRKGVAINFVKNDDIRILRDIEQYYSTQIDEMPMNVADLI
N171A;K172A;N174A was tested, and the “effect of a mutation on the interaction” value was “disrupting interaction strength”.
For R331A;Y334A, the “effect of a mutation on the interaction” value was “decreasing interaction strength”.
